{
  "source": "patent US10143754B2",
  "about": "“Method for peroral delivery of insulin and its analogues for therapeutic usage” (TRANSGENE BIOTEK LIMITED, priority 2011, dated 2018)",
  "key": {"[1]": {"conditions": "rat, in vivo, iv"}, "[2]": {"system": "Streptozotocin induced diabetic Wistar or Sprague Dawley rats", "experiment": "Modification of blood/serum glucose of diabetic rats", "assay_type": "in vivo, rat", "conditions": "IV administration, FIG. 1"}, "[3]": {"conditions": "acid pH; cited from earlier work"}},
  "data": [
    {"substance": "Insulin Lispro", "values": [
      {"measurement": "plasma insulin levels", "setting": "[1]", "value": "increased in accordance with the reduction in serum glucose levels but reduced rapidly"},
      {"measurement": "duration of hypoglycemic effect", "setting": "[2]", "value": "short lived"},
      {"measurement": "reduction of blood glucose levels", "setting": "[2]", "value": "rapid reduction of blood glucose levels"}
    ]},
    {"substance": "Insulin Glargine", "values": [
      {"measurement": "solubility", "setting": "[3]", "value": "soluble at acid pH"}
    ]}
  ]
}
